US20250333523A1 (Alector, published 2025)

T1: Avi/His-HuIL18BPa (recombinant human IL-18BP isoform A with Avi and poly-His tags) (human, biotinylated with BirA on the Avi tag in some assays)
T1 chain: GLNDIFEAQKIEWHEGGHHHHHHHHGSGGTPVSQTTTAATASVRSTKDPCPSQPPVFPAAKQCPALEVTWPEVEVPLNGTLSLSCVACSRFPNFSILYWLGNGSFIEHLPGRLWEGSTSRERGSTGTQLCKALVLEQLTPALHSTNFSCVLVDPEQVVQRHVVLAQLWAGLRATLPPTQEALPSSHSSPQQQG

T2: Avi/HisMsIL18BPd (recombinant mouse IL-18BP with Avi and poly-His tags) (mouse, biotinylated with BirA on the Avi tag in some assays)
T2 chain: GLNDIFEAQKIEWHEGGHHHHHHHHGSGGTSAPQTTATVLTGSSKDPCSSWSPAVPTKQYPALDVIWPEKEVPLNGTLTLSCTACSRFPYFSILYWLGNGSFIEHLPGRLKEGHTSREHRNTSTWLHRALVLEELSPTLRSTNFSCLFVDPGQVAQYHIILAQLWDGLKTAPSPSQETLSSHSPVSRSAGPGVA

T3: His/Avi-CynoIL18BP (recombinant cynomolgus IL-18BP with His and Avi tags) (cynomolgus monkey)
T3 construct: also called cynomolgus IL-18BP-Avi-His
T3 chain: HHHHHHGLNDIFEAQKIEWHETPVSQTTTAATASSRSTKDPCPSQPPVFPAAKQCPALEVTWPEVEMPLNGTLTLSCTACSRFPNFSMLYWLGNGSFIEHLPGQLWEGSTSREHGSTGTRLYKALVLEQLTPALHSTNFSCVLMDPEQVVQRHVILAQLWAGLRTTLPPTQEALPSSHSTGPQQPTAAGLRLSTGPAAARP


What was measured:
[1] = molecular target: T1, Avi/His-HuIL18BPa (recombinant human …); test: cell-based or functional assay
[2] = molecular target: T2, Avi/HisMsIL18BPd (recombinant mouse …); test: cell-based or functional assay
[3] = molecular target: T3, His/Avi-CynoIL18BP (recombinant …); test: SPR Biacore T200, IgG captured on Protein A/G
[4] = molecular target: T1, Avi/His-HuIL18BPa (recombinant human …); test: SPR Biacore T200, IgG captured on Protein A/G

Row | Binder | EC50 of IFNγ release, human PBMCs [1] [nM] | EC50 of IFNγ release, mouse splenocytes [2] [nM] | Kd [3] [nM] | koff [3] [s⁻¹] | kon [3] [M⁻¹ s⁻¹] | Kd [4] [nM] | koff [4] [s⁻¹] | kon [4] [M⁻¹ s⁻¹]
1 | anti-IL-18BP antibody variant BP-04.32 (antibody, V domains shown) VH: QVQLVQSGAEVKKPGASVKVSCKASGYTFTDYDMHWVRQAPGQGLEWMGIYSTYYGDVSYAQKFQGRVTMTRDKSTSTVYMELSSLRSEDTAVYYCARSGTYYYGTRESHALDYWGQGTLVTVSS VL: DIQMTQSPSSVSASVGDRVTITCRASDNVYSNLAWYQQKPGKAPKLLIYGAISLADGVPSRFSGSGSGTDFTLTISSLQPEDFATYYCQHFWGNPYTFGQGTKLEIK | 0.838 | 9.61 | 59 | 0.02 | 340000 | 20 | 0.0074 | 370000
2 | anti-IL-18BP antibody variant BP-04.22 (antibody, V domains shown) VH: QVQLVQSGAEVKKPGASVKVSCKASGYTFTDYDMHWVRQAPGQGLEWMGIISTYYGVVSYAQKKQGRVTMTRDKSTSTVYMELSSLRSEDTAVYYCARSGTYYYGTRESHALDYWGQGTLVTVSS VL: DIQMTQSPSSVSASVGDRVTITCRASDNVYSNLAWYQQKPGKAPKLLIYGAISLADGVPSRFSGSGSGTDFTLTISSLQPEDFATYYCQHFWGNPYTFGQGTKLEIK | 7.71 | 368 | – | – | – | – | – | –
3 | anti-IL-18BP antibody variant BP-04.27 (antibody, V domains shown) VH: QVQLVQSGAEVKKPGASVKVSCKASGYTFTDYDMHWVRQAPGQGLEWMGIISTYYGDVSYAQKFQGRVTMTRDKSTSTVYMELSSLRSEDTAVYYCARSGTYYYGTRESHAFDYWGQGTLVTVSS VL: DIQMTQSPSSVSASVGDRVTITCRASDNVYSNLAWYQQKPGKAPKLLIYGAISLADGVPSRFSGSGSGTDFTLTISSLQPEDFATYYCQHFWGNPYTFGQGTKLEIK | 1.28 | 39.6 | – | – | – | – | – | –
4 | anti-IL-18BP antibody variant BP-04.26 (antibody, V domains shown) VH: QVQLVQSGAEVKKPGASVKVSCKASGYTFTDYDMHWVRQAPGQGLEWMGIYSTYYGVVSYAQKFQGRVTMTRDKSTSTVYMELSSLRSEDTAVYYCARSGTYYYGTRESHALDYWGQGTLVTVSS VL: DIQMTQSPSSVSASVGDRVTITCRASDNVYSNLAWYQQKPGKAPKLLIYGAISLADGVPSRFSGSGSGTDFTLTISSLQPEDFATYYCQHFWGNPYTFGQGTKLEIK | 36.2 | 6.02 | – | – | – | – | – | –
5 | anti-IL-18BP antibody variant BP-04.02 (antibody, V domains shown) VH: QVQLVQSGAEVKKPGASVKVSCKASGYTFTDYDLHWVRQAPGQGLEWMGIISTYYGDVSYAQKFQGRVTMTRDKSTSTVYMELSSLRSEDTAVYYCARSGMYYYGTRESHALDYWGQGTLVTVSS VL: DIQMTQSPSSVSASVGDRVTITCRASDNVYSNLAWYQQKPGKAPKLLIYGAISLADGVPSRFSGSGSGTDFTLTISSLQPEDFATYYCQHFWGNPYTFGQGTKLEIK | 41.5 | 12.3 | – | – | – | – | – | –
6 | anti-IL-18BP antibody variant BP-04.23 (antibody, V domains shown) VH: QVQLVQSGAEVKKPGASVKVSCKASGYTFTDYDMHWVRQAPGQGLEWMGIYSTYYGDVSYAQKFQGRVTMTRDKSTSTVYMELSSLRSEDTAVYYCARSGTYYYGTRESHAFDYWGQGTLVTVSS VL: DIQMTQSPSSVSASVGDRVTITCRASDNVYSNLAWYQQKPGKAPKLLIYGAISLADGVPSRFSGSGSGTDFTLTISSLQPEDFATYYCQHFWGNPYTFGQGTKLEIK | 146 | 3.5 | – | – | – | – | – | –
7 | anti-IL-18BP antibody variant BP-04.28 (antibody, V domains shown) VH: QVQLVQSGAEVKKPGASVKVSCKASGYTFTDYDMHWVRQAPGQGLEWMGIISTYYGDVSYAQKFQGRVTMTRDKSTSTVYMELSSLRSEDTAVYYCARSGTYYYGTRESHPLDYWGQGTLVTVSS VL: DIQMTQSPSSVSASVGDRVTITCRASDNVYSNLAWYQQKPGKAPKLLIYGAISLADGVPSRFSGSGSGTDFTLTISSLQPEDFATYYCQHFWGNPYTFGQGTKLEIK | 71.2 | 134 | 7.2 | 0.0023 | 330000 | 4.7 | 0.0019 | 410000
8 | anti-IL-18BP antibody variant BP-04.25 (antibody, V domains shown) VH: QVQLVQSGAEVKKPGASVKVSCKASGYTFTDYDMHWVRQAPGQGLEWMGIYSTYYGDVSYAQKFQGRVTMTRDKSTSTVYMELSSLRSEDTAVYYCARSGTYNYGTRESHALDYWGQGTLVTVSS VL: DIQMTQSPSSVSASVGDRVTITCRASDNVYSNLAWYQQKPGKAPKLLIYGAISLADGVPSRFSGSGSGTDFTLTISSLQPEDFATYYCQHFWGNPYTFGQGTKLEIK | 5.05 | 28.9 | 100 | 0.022 | 220000 | 21 | 0.0061 | 300000
9 | anti-IL-18BP antibody variant BP-04.08 (antibody, V domains shown) VH: QVQLVQSGAEVKKPGASVKVSCKASGYTFTDYDMHWVRQAPGQGLEWMGIYSTYYGDVSYAQKKQGRVTMTRDKSTSTVYMELSSLRSEDTAVYYCARSGTYNYGTRESHALDYWGQGTLVTVSS VL: DIQMTQSPSSVSASVGDRVTITCRASDNVYSNLAWYQQKPGKAPKLLIYGAISLADGVPSRFSGSGSGTDFTLTISSLQPEDFATYYCQHFWGNPYTFGQGTKLEIK | 174 | 94.1 | 56 | 0.014 | 260000 | 16 | 0.0035 | 210000
10 | anti-IL-18BP antibody variant BP-04.09 (antibody, V domains shown) VH: QVQLVQSGAEVKKPGASVKVSCKASGYTFTDYDMHWVRQAPGQGLEWMGIYSTYYGVVSYAQKFQGRVTMTRDKSTSTVYMELSSLRSEDTAVYYCARSGTYYYGTRESHAFDYWGQGTLVTVSS VL: DIQMTQSPSSVSASVGDRVTITCRASDNVYSNLAWYQQKPGKAPKLLIYGAISLADGVPSRFSGSGSGTDFTLTISSLQPEDFATYYCQHFWGNPYTFGQGTKLEIK | 3.74 | 2.04 | 1.3 | 0.0006 | 450000 | 0.52 | 0.00028 | 530000
11 | anti-IL-18BP antibody variant BP-04.03 (antibody, V domains shown) VH: QVQLVQSGAEVKKPGASVKVSCKASGYTFTDYDMHWVRQAPGQGLEWMGIISTYYGDVSYAQKFQGRVTMTRDKSTSTVYMELSSLRSENTAVYYCARSGTYYYGTREQHALDYWGQGTLVTVSS VL: DIQMTQSPSSVSASVGDRVTITCRASDNVYSNLAWYQQKPGKAPKLLIYGAISLADGVPSRFSGSGSGTDFTLTISSLQPEDFATYYCQHFWGNPYTFGQGTKLEIK | 10.5 | 0.881 | 3.1 | 0.0013 | 420000 | 1.9 | 0.00091 | 470000
12 | anti-IL-18BP antibody variant BP-04.07 (antibody, V domains shown) VH: QVQLVQSGAEVKKPGASVKVSCKASGYTFTDYDMHWVRQAPGQGLEWMGIISTYYGVVSYAQKKQGRVTMTRDKSTSTVYMELSSLRSEDTAVYYCARSGTYNYGTRESHALDYWGQGTLVTVSS VL: DIQMTQSPSSVSASVGDRVTITCRASDNVYSNLAWYQQKPGKAPKLLIYGAISLADGVPSRFSGSGSGTDFTLTISSLQPEDFATYYCQHFWGNPYTFGQGTKLEIK | 4.3 | 51.9 | 2.4 | 0.00076 | 320000 | 1.9 | 0.00068 | 350000
13 | anti-IL-18BP antibody variant BP-04.05 (antibody, V domains shown) VH: QVQLVQSGAEVKKPGASVKVSCKASGYTFTDYDMHWVRQAPGQGLEWMGIISTYYGVVSYAQKKQGRVTMTRDKSTSTVYMELSSLRSEDTAVYYCARSGTYYYGTRESHAFDYWGQGTLVTVSS VL: DIQMTQSPSSVSASVGDRVTITCRASDNVYSNLAWYQQKPGKAPKLLIYGAISLADGVPSRFSGSGSGTDFTLTISSLQPEDFATYYCQHFWGNPYTFGQGTKLEIK | 3.18 | 4.92 | 0.83 | 0.00038 | 460000 | 0.67 | 0.00034 | 510000
14 | anti-IL-18BP antibody variant BP-04.15 (antibody, V domains shown) VH: QVQLVQSGAEVKKPGASVKVSCKASGYTFTDYDMHWVRQAPGQGLEWMGIISTYYGDVSYAQKFQGRVTMTRDKSTSTVYMELSSLRSEDTAVYYCARSGTYNYGTRESHPLDYWGQGTLVTVSS VL: DIQMTQSPSSVSASVGDRVTITCRASDNVYSNLAWYQQKPGKAPKLLIYGAISLADGVPSRFSGSGSGTDFTLTISSLQPEDFATYYCQHFWGNPYTFGQGTKLEIK | 12.3 | 43.1 | 20 | 0.004 | 200000 | 12 | 0.0028 | 240000
